This is an account of results in EP2546652A1.

For experiment [1], the target named is nervous necrosis virus (NNV) particles (nervous necrosis virus (from grouper)). In words: immunomagnetic reduction (IMR), logistic fit of IMR (%) against NNV concentration.
The target is the same in experiment [2]. In words: immunomagnetic reduction (IMR), anti-NNV magnetic nanoparticles mixed with NNV solution; value at 5 TCID50/ml NNV.
The target is the same in experiment [3]. Description: immunomagnetic reduction (IMR), anti-NNV magnetic nanoparticles mixed with NNV solution; value at 10^7 TCID50/ml NNV.

As to “nervous necrosis virus antibody (anti-nervous necrosis virus), covalently bound to the dextran shell of Fe3O4 magnetic nanoparticles”, in experiment [1], the B (high-end value of the IMR signal, logistic fit) came out at 3.47% and the φo (fitting parameter of the logistic function of IMR signal against NNV concentration) turned out to be 26700 TCID50/ml. Also, the IMR signal in experiment [2] is 0.84%. Moreover, in experiment [3], the IMR signal is 3.04%.
